Experimental findings from article PMC9256742, “Structure and function of cancer-related developmentally regulated GTP-binding protein 1 (DRG1) is conserved between sponges and humans” (Scientific Reports, 2022) are described below.

The target of assay [1] is recombinant sponge (Eunapius subterraneus) developmentally regulated GTP-binding protein 1, His-tagged (Eunapius subterraneus).
Assay [2] has as its target recombinant sponge (Eunapius subterraneus) DRG family regulatory protein 1, His-tagged (Eunapius subterraneus). Briefly: SEC; Superdex 200 Increase 10/300 GL, 10 mM phosphate buffer, 140 mM NaCl, pH 7.4, 4 °C; column calibrated with standards; fractions analysed by SDS-PAGE and anti-His Western blot.
For assay [3], the target named is T1, recombinant human DRG family regulatory protein 1, His-tagged (human, UniProt Q8WU90 1-426).
T1 construct: human DFRP1 (LEREPO4/ZC3H15), cDNA from a commercially available product; also called HsaDFRP1; human DFRP1
T1 sequence (looked up): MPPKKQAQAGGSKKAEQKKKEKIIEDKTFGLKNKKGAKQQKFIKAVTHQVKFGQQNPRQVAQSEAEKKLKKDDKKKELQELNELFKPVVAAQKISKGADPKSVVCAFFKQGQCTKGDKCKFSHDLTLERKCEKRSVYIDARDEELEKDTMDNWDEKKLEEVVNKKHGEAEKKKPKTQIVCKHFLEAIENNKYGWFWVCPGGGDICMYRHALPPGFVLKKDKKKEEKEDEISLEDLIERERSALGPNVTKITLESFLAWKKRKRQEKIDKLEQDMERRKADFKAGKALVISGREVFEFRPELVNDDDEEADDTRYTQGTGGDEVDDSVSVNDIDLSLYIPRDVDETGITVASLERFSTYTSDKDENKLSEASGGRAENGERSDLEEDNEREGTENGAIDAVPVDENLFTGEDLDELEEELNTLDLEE
The assay is described as follows: cross-linking; glutaraldehyde cross-linking of a mixture of DRG1 and DFRP1 (2 ug of each), or of DFRP1 alone, in PBS, 0.125-0.5% glutaraldehyde, 30 min, room temperature (25 °C); SDS-PAGE, Coomassie. Conditions: both partners purified.

recombinant sponge (Eunapius subterraneus) developmentally regulated GTP-binding protein 1, His-tagged (Eunapius subterraneus), sequence (main, as listed by the source): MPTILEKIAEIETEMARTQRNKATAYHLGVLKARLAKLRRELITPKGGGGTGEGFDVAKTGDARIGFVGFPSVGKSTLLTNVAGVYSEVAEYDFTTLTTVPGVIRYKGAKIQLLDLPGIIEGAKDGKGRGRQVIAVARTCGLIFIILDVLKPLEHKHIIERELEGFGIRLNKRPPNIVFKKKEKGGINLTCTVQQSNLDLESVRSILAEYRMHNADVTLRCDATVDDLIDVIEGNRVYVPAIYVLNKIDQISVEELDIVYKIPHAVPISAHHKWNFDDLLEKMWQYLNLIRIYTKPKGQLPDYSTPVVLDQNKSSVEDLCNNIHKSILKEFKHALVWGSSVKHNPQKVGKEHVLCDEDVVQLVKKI

Regarding “recombinant sponge (Eunapius subterraneus) DRG family regulatory protein 1, His-tagged (natural protein)”, the GTPase activity of EsuDRG1 (GTPase-Glo luminescence assay) with equimolar EsuDFRP1, 1.2 uM each, against EsuDRG1 alone in assay [1] was found to be 2.5 fold. Further, the stoichiometry N (in general, the number of molecules, sites or subunits per partner or assembly) in assay [2] turned out to be 4.

B1: recombinant human developmentally regulated GTP-binding protein 1, His-tagged (natural protein, UniProt Q9Y295 1-367, looked up)
chain: MSSTLAKIAEIEAEMARTQKNKATAHHLGLLKARLAKLRRELITPKGGGGGGPGEGFDVAKTGDARIGFVGFPSVGKSTLLSNLAGVYSEVAAYEFTTLTTVPGVIRYKGAKIQLLDLPGIIEGAKDGKGRGRQVIAVARTCNLILIVLDVLKPLGHKKIIENELEGFGIRLNSKPPNIGFKKKDKGGINLTATCPQSELDAETVKSILAEYKIHNADVTLRSDATADDLIDVVEGNRVYIPCIYVLNKIDQISIEELDIIYKVPHCVPISAHHRWNFDDLLEKIWDYLKLVRIYTKPKGQLPDYTSPVVLPYSRTTVEDFCMKIHKNLIKEFKYALVWGLSVKHNPQKVGKDHTLEDEDVIQIVKK
notes: human DRG1, cDNA from a commercially available product; also called HsaDRG1; HsaDRG1-His
On to B1, for which the binding result in assay [3] is listed as “binds”.
